Test results: publication PMC5501590

B1: rat IGSF1-2 (IGSF1 isoform 2): N44Q (protein)
parent chain: MMLRTFTLLLLCIWLNRGMTSMAAVESQPELWIESNYPQAPWENITLWCKSPSRVSSKFLLLKDNTQMTWIHPPYKTFQVSFFIGALTESNTGLYRCCYWNEKGWSKPSKILELEAPGQLPKPIFWIQAETPPFPGCNVNILCHGWLQDLVFMLFKEGYTEPIDYQVPTGTMAIFSIDNLAPENEGIYICRTHIQMLPTLWSEPSNPLKLVVAGGCAHGCWHLTIVIPGIMAG
B2: murine IGSF1-2 (IGSF1 isoform 2): N43Q (protein)
parent chain: MMLRTFTLLLLCIWLNPGMTSLAVESQPELWIESNYPQAPWENITLWCKSPSRVSSKFLLLKDNSQMTWIRPPYKTFQVSFFIGALTESNTGLYRCCYWKEKGWSKPSKILELEAPGQLPKPIFWIQAETPPLPGCNVNIFCHGWLQDLVFMLFKEGYTEPVDYQVPTGTMAIFSIDNLAPENEGVYICRTHIQMLPTLWSEPSNPLKLVVAGGCGHGCWHLTIVIPGIMAG

Key:
[1] = Myc immunoblot of HEK293 whole cell lysates; details: glycan lost; control: wild type
[2] = Myc immunoblot of HEK293 medium, with/without Ni-NTA enrichment; details: glycan lost; control: wild type

Protein	expression_or_secretion [1]	expression_or_secretion [2]
B1	no change	no change
B2	no change	no change
